# How the values were obtained:
# human PD-L1 = biological target: T1, human PD-L1 (human, UniProt Q9NZQ7 19-238, limits assumed); assay: SPR (format not described)
# T1 construct: also called CD274; B7-H1
# cynomolgus monkey PD-L1 = biological target: T2, cynomolgus monkey PD-L1 (cynomolgus monkey, UniProt G7PSE7 19-238); assay: SPR (format not described)
# T2 construct: PD-L1 is implied
# T2 sequence (G7PSE7 entry or part of it): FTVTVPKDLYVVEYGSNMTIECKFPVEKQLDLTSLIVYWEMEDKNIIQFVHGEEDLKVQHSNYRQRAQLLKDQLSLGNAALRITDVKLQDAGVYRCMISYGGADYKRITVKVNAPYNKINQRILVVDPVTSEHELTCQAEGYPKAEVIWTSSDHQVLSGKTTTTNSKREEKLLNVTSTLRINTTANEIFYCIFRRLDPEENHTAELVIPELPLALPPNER
# T1 sequence (Q9NZQ7 19-238 limits assumed): as the sequence (G7PSE7 entry or part of it) above, with T33A, S34A, N62S, Q68R, R82Q, L173F, A185T, I192T, L215H counted along it
Binder,Kd (human PD-L1) [nM],Kd (cynomolgus monkey PD-L1) [nM]
"hABM101.11 (IgG4) (antibody, V domains shown) VH: QVQLVQSGPEVKKPGASVKVSCKASGYTFTENSMHWVRQSHGKSLEWMGGINPNNGGTSYNQKFKGKVTMTTDKSTSTAYMELRSLTSDDTAVYYCARPYYYGYREDYFDYWGQGTTLTVSS VL: EIVMTQSPGTLSLSPGERATLSCRASSSVSYMYWYQQKPGQAPRPLIYLTSNLASGIPDRFSGSGSGTDYTLTISRLEPEDFAVYYCQQWSSYPPTFGQGTKVEIKR",0.349,–
"hABM101.11 (IgG1) (antibody, V domains shown) VH: QVQLVQSGPEVKKPGASVKVSCKASGYTFTENSMHWVRQSHGKSLEWMGGINPNNGGTSYNQKFKGKVTMTTDKSTSTAYMELRSLTSDDTAVYYCARPYYYGYREDYFDYWGQGTTLTVSS VL: EIVMTQSPGTLSLSPGERATLSCRASSSVSYMYWYQQKPGQAPRPLIYLTSNLASGIPDRFSGSGSGTDYTLTISRLEPEDFAVYYCQQWSSYPPTFGQGTKVEIKR",0.374,0.579

# From patent US20210017284A1 (ABEOME, published 2021)
